{
  "source": "patent US9492315B2",
  "about": "“Implantable therapeutic device” (ForSight Vision4, Inc., priority 2010, dated 2016)",
  "key": {"[1]": {"test": "Calculations of Lucentis concentrations in the vitreous, monkey model (bolus injections and device Simulations 1-5)", "conditions": "parameter applied in Simulations 1-5 (column = simulation)", "text": "A model can be derived to describe the release rate as a function of time by relating the change of concentration in the reservoir to the release rate described above. This model assumes a solution of therapeutic agent where the concentration in the reservoir is uniform. In addition, the concentration in the receiving fluid or vitreous is considered negligible (cV=0). Solving the differential equation and rearrangement yields the following equations describing the concentration in the reservoir as a function of time, t, and volume of the reservoir, VR, for release of a therapeutic agent from a solution in a reservoir though a porous structure. cR=cR0exp((−DPA/FLVR)t) and Cumulative Release=1−cR/cR0\nA bolus injection into the vitreous may be modeled as a single exponential with rate constant, k=0.693/half-life and a cmax=dose/Vv where Vv is the vitreous volume. […] The vitreous volume is approximately 1.5 mL for the rabbit and monkey and 4.5 mL for the human eye. […] This concentration decays to a vitreous concentration of 0.1 ug/mL after about a month.\nFor devices with extended release, the concentration in the vitreous changes slowly with time. […]\nThe first column used the measured Cmax (Gaudreault et al.) while the second used a calculated Cmax based on the dose and volume of the vitreous."}, "[2]": {"test": "Determined concentration profiles of Lucentis/ranibizumab in the vitreous humor for injections into the device or bolus (FIGS. 19B-19T, 32A-32E, 37)", "set-up": "species or system human", "conditions": "parameter used for FIGS. 19K to 19P, half-life 9 days", "text": "The therapeutic device 100 can be tuned to deliver a target therapeutic concentration profile based on the volume of formulation injected into the device. The injected volume may comprise a substantially fixed volume, for example within about +/−30% of an intended predetermined target volume. The volume of the reservoir can be sized with the release rate index so as to release the therapeutic agent for an extended time substantially greater than the treatment time of a corresponding bolus injection. The device can also be tuned to release the therapeutic agent based on the half life of the therapeutic agent in the eye. The device volume and release rate index comprise parameters that can be tuned together based on the volume of formulation injected and the half life of the therapeutic agent in the eye. The following equations can be used to determine therapeutic device parameters suitable for tuning the device. Rate=Vr(dCr/dt)=−D(PA/TL)Cr where Rate=Rate of release of therapeutic agent from device Cr=concentration of therapeutic agent in reservoir Vr=volume of reservoir D=Diffusion constant PA/TL=RRI P=porosity A=area T=tortuosity=F=channel parameter. […]\nThese concentration profiles were determined with modeling and calculations as described herein. […]"}, "[3]": {"tested_on": "retinal thickness / lesion size in wet AMD", "test": "Low dose Lucentis MIC study in wet AMD patients with OCT imaging (Example 18)", "format": "in vivo, human", "text": "OCT (Optical Coherence Tomography) imaging was used to assess the condition of the region of the macula at the back surface of the treated eye. The OCT technique relies on the measurement of certain properties of light (e.g. echo time, intensity of reflection) that has been directed at the area of study and can measure very small amounts of reflected light. Because these cellular features are essentially transparent it is possible to use OCT methodology to generate three dimensional representations of the area.\nThe regions of interest were analyzed with a two dimensional representation of the cross section of the retinal wall at one longitudinal scan location of the OCT image. In these “OCT scan” images is it possible to interrogate very local areas of interest more specifically. The OCT scans were carefully selected to directly compare the thickness and anatomical structure of specific sites within a lesion, pre and post treatment, for the purpose of assessing the effect of injected drug including a reduction in sub-retinal fluid.\nThe OCT images were measured the day after injection and at 2-3 days post injection.\nFurther studies can be conducted by one or ordinary skill in the based on the teachings described herein to determine empirically the MIC for a sustained release device and cumulative effect of the drug over the time of release."}, "[4]": {"conditions": "rabbit and monkey (Gaudreault et al.), cited from earlier work"}, "[5]": {"conditions": "humans (Lucentis package insert); cited from earlier work"}, "[6]": {"tested_on": "Grade IV choroidal neovascularization (CNV) lesions", "conditions": "intravitreal injection, all doses tested, cynomolgus monkeys, laser photocoagulation model; cited from earlier work"}},
  "note": "Read-outs that look alike come from different tables or passages of the source.",
  "data": [
    {"substance": "ranibizumab [Lucentis]", "values": [
      {"measurement": "Rate constant, k", "setting": "[1]", "value": 0.264, "unit": "day⁻¹"},
      {"measurement": "Rate constant, k", "setting": "[2]", "value": 0.077, "unit": "day⁻¹"},
      {"measurement": "Treatment Effect Observed?", "setting": "[3]; decrease in size of the lesion on OCT after low dose bolus, patient # in r2, dose in r4", "value": "Yes"},
      {"measurement": "MIC for a sustained release device", "setting": "[3]; human patients, wet AMD", "value": "≤ 1", "unit": "ug per ml"},
      {"measurement": "half-life in the vitreous", "setting": "[4]", "value": "two to four"},
      {"measurement": "half-life in the vitreous", "setting": "[4]; listed as ranibizumab", "value": "approximately 3 days"},
      {"measurement": "half-life in the vitreous", "setting": "[5]", "value": "~220", "unit": "h"},
      {"measurement": "development of Grade IV CNV lesions", "setting": "[6]", "value": "completely inhibited"}
    ]}
  ]
}
